± gives the uncertainty stated by the source.
Assay: abundance fitness (aPCA) (normalised: wild type 0, dead -1); higher = more abundant; growth selection in yeast, the domain comes from the species named
Conditions: Homo sapiens

Compared with “NEDD4-like E3 ubiquitin-protein ligase WWP2 E480F, O00308”, “NEDD4-like E3 ubiquitin-protein ligase WWP2 E480G, O00308” is higher in abundance fitness: -0.239 ± 0.062 for the first, -0.038 ± 0.033 for the second.

“NEDD4-like E3 ubiquitin-protein ligase WWP2 E480H, O00308” and “NEDD4-like E3 ubiquitin-protein ligase WWP2 E480I, O00308” are within error of each other in abundance fitness: 0.027 ± 0.068 for the first, -0.042 ± 0.047 for the second.

“NEDD4-like E3 ubiquitin-protein ligase WWP2 E480K, O00308” and “NEDD4-like E3 ubiquitin-protein ligase WWP2 E480L, O00308” are within error of each other in abundance fitness: -0.019 ± 0.05 for the first, -0.072 ± 0.042 for the second.

“NEDD4-like E3 ubiquitin-protein ligase WWP2 E480M, O00308” and “NEDD4-like E3 ubiquitin-protein ligase WWP2 E480N, O00308” are within error of each other in abundance fitness: -0.058 ± 0.048 for the first, -0.126 ± 0.068 for the second.

“NEDD4-like E3 ubiquitin-protein ligase WWP2 E480P, O00308” and “NEDD4-like E3 ubiquitin-protein ligase WWP2 E480Q, O00308” are within error of each other in abundance fitness: -0.141 ± 0.062 for the first, -0.053 ± 0.04 for the second.

“NEDD4-like E3 ubiquitin-protein ligase WWP2 E480R, O00308” and “NEDD4-like E3 ubiquitin-protein ligase WWP2 E480S, O00308” are within error of each other in abundance fitness: -0.078 ± 0.038 for the first, -0.15 ± 0.053 for the second.

“NEDD4-like E3 ubiquitin-protein ligase WWP2 E480T, O00308” and “NEDD4-like E3 ubiquitin-protein ligase WWP2 E480V, O00308” are within error of each other in abundance fitness: -0.119 ± 0.062 for the first, -0.064 ± 0.035 for the second.

First: NEDD4-like E3 ubiquitin-protein ligase WWP2 E480Y, O00308
Second: NEDD4-like E3 ubiquitin-protein ligase WWP2 F462A, O00308
The abundance fitness of the first is higher: 0.036 ± 0.065 for the first, -1.02 ± 0.067 for the second.

Going from “NEDD4-like E3 ubiquitin-protein ligase WWP2 F462C, O00308” to “NEDD4-like E3 ubiquitin-protein ligase WWP2 F462D, O00308”, the abundance fitness rises from -0.88 ± 0.054 to -0.675 ± 0.084.

Compared with “NEDD4-like E3 ubiquitin-protein ligase WWP2 F462G, O00308”, “NEDD4-like E3 ubiquitin-protein ligase WWP2 F462I, O00308” is lower in abundance fitness: -0.8 ± 0.054 for the first, -1.03 ± 0.16 for the second.

“NEDD4-like E3 ubiquitin-protein ligase WWP2 F462K, O00308” and “NEDD4-like E3 ubiquitin-protein ligase WWP2 F462L, O00308” are within error of each other in abundance fitness: -0.789 ± 0.16 for the first, -0.9 ± 0.061 for the second.

Compared with “NEDD4-like E3 ubiquitin-protein ligase WWP2 F462M, O00308”, “NEDD4-like E3 ubiquitin-protein ligase WWP2 F462N, O00308” is lower in abundance fitness: -0.66 ± 0.08 for the first, -0.945 ± 0.082 for the second.

Compared with “NEDD4-like E3 ubiquitin-protein ligase WWP2 F462P, O00308”, “NEDD4-like E3 ubiquitin-protein ligase WWP2 F462Q, O00308” is lower in abundance fitness: -0.605 ± 0.099 for the first, -1.02 ± 0.16 for the second.

Going from “NEDD4-like E3 ubiquitin-protein ligase WWP2 F462R, O00308” to “NEDD4-like E3 ubiquitin-protein ligase WWP2 F462S, O00308”, the abundance fitness falls from -0.851 ± 0.046 to -1.04 ± 0.051.

“NEDD4-like E3 ubiquitin-protein ligase WWP2 F462T, O00308” and “NEDD4-like E3 ubiquitin-protein ligase WWP2 F462V, O00308” are within error of each other in abundance fitness: -0.87 ± 0.16 for the first, -0.939 ± 0.037 for the second.

“NEDD4-like E3 ubiquitin-protein ligase WWP2 F462W, O00308” and “NEDD4-like E3 ubiquitin-protein ligase WWP2 F462Y, O00308” are within error of each other in abundance fitness: -0.152 ± 0.066 for the first, -0.048 ± 0.081 for the second.

“NEDD4-like E3 ubiquitin-protein ligase WWP2 F472A, O00308” and “NEDD4-like E3 ubiquitin-protein ligase WWP2 F472C, O00308” are within error of each other in abundance fitness: -0.373 ± 0.052 for the first, -0.48 ± 0.067 for the second.

“NEDD4-like E3 ubiquitin-protein ligase WWP2 F472D, O00308” and “NEDD4-like E3 ubiquitin-protein ligase WWP2 F472E, O00308” are within error of each other in abundance fitness: -0.319 ± 0.072 for the first, -0.357 ± 0.061 for the second.

First: NEDD4-like E3 ubiquitin-protein ligase WWP2 F472H, O00308
Second: NEDD4-like E3 ubiquitin-protein ligase WWP2 F472I, O00308
The abundance fitness of the first is higher: -0.291 ± 0.033 for the first, -0.495 ± 0.082 for the second.

“NEDD4-like E3 ubiquitin-protein ligase WWP2 F472K, O00308” and “NEDD4-like E3 ubiquitin-protein ligase WWP2 F472L, O00308” are within error of each other in abundance fitness: -0.355 ± 0.07 for the first, -0.289 ± 0.052 for the second.

“NEDD4-like E3 ubiquitin-protein ligase WWP2 F472N, O00308” and “NEDD4-like E3 ubiquitin-protein ligase WWP2 F472Q, O00308” are within error of each other in abundance fitness: -0.373 ± 0.053 for the first, -0.402 ± 0.045 for the second.

First: NEDD4-like E3 ubiquitin-protein ligase WWP2 F472S, O00308
Second: NEDD4-like E3 ubiquitin-protein ligase WWP2 F472T, O00308
The abundance fitness of the first is lower: -0.351 ± 0.048 for the first, -0.15 ± 0.065 for the second.

First: NEDD4-like E3 ubiquitin-protein ligase WWP2 F472V, O00308
Second: NEDD4-like E3 ubiquitin-protein ligase WWP2 F472W, O00308
The abundance fitness of the first is lower: -0.392 ± 0.044 for the first, -0.129 ± 0.05 for the second.

“NEDD4-like E3 ubiquitin-protein ligase WWP2 F472Y, O00308” and “NEDD4-like E3 ubiquitin-protein ligase WWP2 F479C, O00308” are within error of each other in abundance fitness: -0.025 ± 0.057 for the first, -0.054 ± 0.046 for the second.

“NEDD4-like E3 ubiquitin-protein ligase WWP2 F479D, O00308” and “NEDD4-like E3 ubiquitin-protein ligase WWP2 F479E, O00308” are within error of each other in abundance fitness: 0.02 ± 0.072 for the first, 0.027 ± 0.049 for the second.

“NEDD4-like E3 ubiquitin-protein ligase WWP2 F479G, O00308” and “NEDD4-like E3 ubiquitin-protein ligase WWP2 F479H, O00308” are within error of each other in abundance fitness: 0.017 ± 0.04 for the first, -0.036 ± 0.083 for the second.

“NEDD4-like E3 ubiquitin-protein ligase WWP2 F479I, O00308” and “NEDD4-like E3 ubiquitin-protein ligase WWP2 F479K, O00308” are within error of each other in abundance fitness: -0.086 ± 0.07 for the first, -0.015 ± 0.051 for the second.

“NEDD4-like E3 ubiquitin-protein ligase WWP2 F479L, O00308” and “NEDD4-like E3 ubiquitin-protein ligase WWP2 F479P, O00308” are within error of each other in abundance fitness: -0.054 ± 0.049 for the first, -0.003 ± 0.054 for the second.

“NEDD4-like E3 ubiquitin-protein ligase WWP2 F479Q, O00308” and “NEDD4-like E3 ubiquitin-protein ligase WWP2 F479R, O00308” are within error of each other in abundance fitness: -0.082 ± 0.053 for the first, -0.046 ± 0.049 for the second.

“NEDD4-like E3 ubiquitin-protein ligase WWP2 F479S, O00308” and “NEDD4-like E3 ubiquitin-protein ligase WWP2 F479T, O00308” are within error of each other in abundance fitness: -0.013 ± 0.042 for the first, 0.025 ± 0.061 for the second.

First: NEDD4-like E3 ubiquitin-protein ligase WWP2 F479V, O00308
Second: NEDD4-like E3 ubiquitin-protein ligase WWP2 F479W, O00308
The abundance fitness of the first is higher: -0.004 ± 0.04 for the first, -0.103 ± 0.058 for the second.

“NEDD4-like E3 ubiquitin-protein ligase WWP2 F479Y, O00308” and “NEDD4-like E3 ubiquitin-protein ligase WWP2 G449A, O00308” are within error of each other in abundance fitness: -0.18 ± 0.08 for the first, -0.269 ± 0.049 for the second.

Going from “NEDD4-like E3 ubiquitin-protein ligase WWP2 G449C, O00308” to “NEDD4-like E3 ubiquitin-protein ligase WWP2 G449D, O00308”, the abundance fitness rises from -0.668 ± 0.076 to -0.127 ± 0.044.

“NEDD4-like E3 ubiquitin-protein ligase WWP2 G449E, O00308” and “NEDD4-like E3 ubiquitin-protein ligase WWP2 G449F, O00308” are within error of each other in abundance fitness: -0.167 ± 0.053 for the first, -0.163 ± 0.052 for the second.

Going from “NEDD4-like E3 ubiquitin-protein ligase WWP2 G449H, O00308” to “NEDD4-like E3 ubiquitin-protein ligase WWP2 G449I, O00308”, the abundance fitness falls from -0.274 ± 0.087 to -1.09 ± 0.18.

“NEDD4-like E3 ubiquitin-protein ligase WWP2 G449L, O00308” and “NEDD4-like E3 ubiquitin-protein ligase WWP2 G449M, O00308” are within error of each other in abundance fitness: -0.174 ± 0.038 for the first, -0.11 ± 0.042 for the second.

First: NEDD4-like E3 ubiquitin-protein ligase WWP2 G449N, O00308
Second: NEDD4-like E3 ubiquitin-protein ligase WWP2 G449P, O00308
The abundance fitness of the first is higher: 0.119 ± 0.065 for the first, -0.937 ± 0.11 for the second.

“NEDD4-like E3 ubiquitin-protein ligase WWP2 G449Q, O00308” and “NEDD4-like E3 ubiquitin-protein ligase WWP2 G449R, O00308” are within error of each other in abundance fitness: -0.107 ± 0.064 for the first, -0.14 ± 0.047 for the second.

First: NEDD4-like E3 ubiquitin-protein ligase WWP2 G449S, O00308
Second: NEDD4-like E3 ubiquitin-protein ligase WWP2 G449V, O00308
The abundance fitness of the first is higher: -0.17 ± 0.029 for the first, -0.679 ± 0.035 for the second.

“NEDD4-like E3 ubiquitin-protein ligase WWP2 G449W, O00308” and “NEDD4-like E3 ubiquitin-protein ligase WWP2 G449Y, O00308” are within error of each other in abundance fitness: -0.283 ± 0.053 for the first, -0.205 ± 0.067 for the second.

“NEDD4-like E3 ubiquitin-protein ligase WWP2 G458A, O00308” and “NEDD4-like E3 ubiquitin-protein ligase WWP2 G458C, O00308” are within error of each other in abundance fitness: -0.202 ± 0.059 for the first, -0.193 ± 0.051 for the second.

“NEDD4-like E3 ubiquitin-protein ligase WWP2 G458D, O00308” and “NEDD4-like E3 ubiquitin-protein ligase WWP2 G458E, O00308” are within error of each other in abundance fitness: -0.343 ± 0.079 for the first, -0.367 ± 0.063 for the second.

First: NEDD4-like E3 ubiquitin-protein ligase WWP2 G458F, O00308
Second: NEDD4-like E3 ubiquitin-protein ligase WWP2 G458H, O00308
The abundance fitness of the first is lower: -0.539 ± 0.1 for the first, -0.234 ± 0.068 for the second.

Going from “NEDD4-like E3 ubiquitin-protein ligase WWP2 G458I, O00308” to “NEDD4-like E3 ubiquitin-protein ligase WWP2 G458K, O00308”, the abundance fitness rises from -1.18 ± 0.19 to -0.049 ± 0.045.
